PMC8633789, “Transmembrane topology and oligomeric nature of an astrocytic membrane protein, MLC1” (Open Biology, 2021)

How the values were obtained:
CLC-ck2 = assay: SEC-MALS; SEC-MALS-RI, Superdex-200 Increase 10/300 GL, 1 mg/ml in 200 µl, 150 mM NaCl, 20 mM HEPES pH 7.5, 2 mM DDM
[1] = molecular target: codon-optimized chicken MLC1 with 6× His-tag (chicken); assay: cross-linking; glutaraldehyde (400-fold molar excess) on protein-detergent micelles (0.5-0.9 µg protein/µl), 1, 10 or 30 min at 23°C, SDS-PAGE; cross-linking largely inhibited with 2% SDS
[2] = molecular target: the molecule itself; assay: SEC-MALS; SEC-MALS-RI, Superdex-200 Increase 10/300 GL, 1 mg/ml in 200 µl, 150 mM NaCl, 20 mM HEPES pH 7.5, 2 mM DDM
[3] = molecular target: the molecule itself; assay: cross-linking; glutaraldehyde (400-fold molar excess) on protein-detergent micelles (0.5-0.9 µg protein/µl), 1, 10 or 30 min at 23°C, SDS-PAGE; cross-linking largely inhibited with 2% SDS
[4] = molecular target: the molecule itself; assay: single-molecule photobleaching (TIRFM); proteoliposomes (POPE:POPG 3:1, 0.1 mol% biotinyl CAP-PE, 0.4 µg protein/mg lipid) immobilised on a coated coverslip; distribution of GFP bleaching steps compared with binomial models, p = 0.8

## CLC-ck2 (natural protein)
CLC-ck2
  stoichiometry N: 2

## codon-optimized chicken MLC1 with 6× His-tag (natural protein)
[1]
  stoichiometry N: 3

B1: CLC-ec1 (natural protein, UniProt P37019 1-473, looked up)
chain: MKTDTPSLETPQAARLRRRQLIRQLLERDKTPLAILFMAAVVGTLVGLAAVAFDKGVAWLQNQRMGALVHTADNYPLLLTVAFLCSAVLAMFGYFLVRKYAPEAGGSGIPEIEGALEDQRPVRWWRVLPVKFFGGLGTLGGGMVLGREGPTVQIGGNIGRMVLDIFRLKGDEARHTLLATGAAAGLAAAFNAPLAGILFIIEEMRPQFRYTLISIKAVFIGVIMSTIMYRIFNHEVALIDVGKLSDAPLNTLWLYLILGIIFGIFGPIFNKWVLGMQDLLHRVHGGNITKWVLMGGAIGGLCGLLGFVAPATSGGGFNLIPIATAGNFSMGMLVFIFVARVITTLLCFSSGAPGGIFAPMLALGTVLGTAFGMVAVELFPQYHLEAGTFAIAGMGALLAASIRAPLTGIILVLEMTDNYQLILPMIITGLGATLLAQFTGGKPLYSAILARTLAKQEAEQLARSKAASASENT
notes: CLC-ec1, control membrane protein, approximately 100 kDa as a dimer; also called CLC-ec1 dimer
[2]
  stoichiometry N: 2

B2: 3× Flag-tagged human MLC1 (natural protein, UniProt Q15049-1 1-377, looked up)
chain: MTQEPFREELAYDRMPTLERGRQDPASYAPDAKPSDLQLSKRLPPCFSHKTWVFSVLMGSCLLVTSGFSLYLGNVFPAEMDYLRCAAGSCIPSAIVSFTVSRRNANVIPNFQILFVSTFAVTTTCLIWFGCKLVLNPSAININFNLILLLLLELLMAATVIIAARSSEEDCKKKKGSMSDSANILDEVPFPARVLKSYSVVEVIAGISAVLGGIIALNVDDSVSGPHLSVTFFWILVACFPSAIASHVAAECPSKCLVEVLIAISSLTSPLLFTASGYLSFSIMRIVEMFKDYPPAIKPSYDVLLLLLLLVLLLQAGLNTGTAIQCVRFKVSARLQGASWDTQNGPQERLAGEVARSPLKEFDKEKAWRAVVVQMAQ
notes: human MLC1 (megalencephalic leukoencephalopathy with subcortical cysts protein 1), cDNA NM_015166.3 from GenScript; The predicted mass of the tagged monomer (approx. 44 kDa) fits the whole protein; also called 3× Flag-hMLC1; hMLC1; not shown: 3× Flag, N-terminal, kept
[3]
  stoichiometry N: 3

B3: 3× Flag-tagged hMLC1-GFP (natural protein, human, UniProt Q15049-1 1-377, looked up)
chain: B2 chain
notes: human MLC1, cDNA NM_015166.3; probably as for 3× Flag-hMLC1 (HEK293S GnTI-); also called 3× F-hMLC1-G; 3× F-hMLC1-GFP; source: reconstituted into POPE:POPG proteoliposomes; not shown: 3× Flag, N-terminal, kept; GFP, C-terminal, kept
[4]
  stoichiometry N: 3
